In article PMC8545088:

Assays:
[1] = target: PorZ from P. gingivalis (P. gingivalis W83); assay: other fluorescence titration; microscale fluorescence (initial fluorescence, Monolith NT.115): 20 nM NT-647-labelled PorZ titrated with PorU (3 nM to 100 μM) in PBS, 25°C, without A-LPS; 1:1 binding model
[2] = target: PorZ from P. gingivalis (P. gingivalis W83); assay: other fluorescence titration; microscale fluorescence (initial fluorescence, Monolith NT.115): 20 nM NT-647-labelled PorZ with 1 × 10^5 EU/ml A-LPS from W83, titrated with PorU (3 nM to 100 μM) in PBS, 25°C; 1:1 binding model

B1: PorU sortase from P. gingivalis, hexahistidine-tagged (enzyme)
chain: QRAMGKTADRSLMASGHWVKIRVDASGVYRLTDEQLRANGFSDPSKVGVFGYGGGVLPEDLSRITTDDLPPVPVLRQGNALYFYAVGPVTWFYNPAKTTMEHTVNTYSTHGYYFLSDAAGAPLQMSQYTGGGASAEALIDYYDELMLHEQELYSPKESGRDLYGESFSAVNTRTVKFPLRGNTRSSGELGTVFSYIAKARSAGGGREMSLSANGILIFSDPFSMTSNEVSNSYLAGKKRRLYRSTPMNSLVNELRLDANYSMTGDAVNLDFIEVATQNDLRYDGAPMHIRRFSNLPVLGGESCRFVISEVPESLVVLQANSSLTASLVPVKTVGDKTIEFVAPPKGQDRRTINTFYAVDLSQASAPEILGAVPNQNLHGEEIPDLIIVSTQALLPEADRLATYRREKNGLKVLVVLQEQVFNEFSGGTPDATAYRLFAKMFYDRWKANAPVGETFPMQMLLFGDGAHDNRKVSVAWQKPYLQQTEFLLTFQAVNSTNVNSYVTDDYFGLLDDQPASVNIGWRNYNMAVGRFPVRTPAEARIAVDKTIRYEEDRESGAWRIRACFAADNGDKHATETSRLIDTVKRYAPAIMPVRAFQDVYPHVIENGLHSIPGAKKKMLETLQSGIILLNYAGHGGPAGWSDEHLLTLNDIHNFNYKHMPIWITATCDFANYDSQTTSAGEEVFLHEKSGTPIMFSTTRVVYNTQNEKINGFMLRRMFEKAKDGRYRTMGEIIRSAKQGMLSTVFPDSINQLSFFLMGDPSVRMNLPTHKVQLTAINGQDPEGQYGTIMLKSLERVALKGKVTDEKGTFDETFSGKVFLTVFDGRKKMTALEEEGNDLSLVYYDYPNVMYAGIAEVKDGLFETSFIVPKDVNYSEHEGRINLYAYNESTKAEAMGVDFSIRVQPGIPDEVTEDNTPPEIISCFLNDSTFRSGDEVNPTPLFMAEVFDLNGINITGSGVGHDITLCIDGRADLTYNLNAYFTSSATDAGVGTILFMIPALAEGDHTARLTVWDIFNNAVHHDFSFRVVDGIAPDVADVILFPNPVRESATFRIFHNRPGSDLNVVVEIYDFTGRLVNSLPVKTYSSSYGEPIEIKWDLTSKYGVKIGNGFYLYRCVVNSPGGQTASMAKKMIVVAQ
Kd [1]: 3400 nM
Kd [2]: 700 nM
